Reference: patent publication US12227570B2, “Anti-CEACAM6 antibodies and methods of use” (Singapore Health Services PTE LTD, priority 2016, dated 2025)

Test system: normal tissues
Test: IHC staining on FFPE normal tissue microarray (MNO961)
Procedure: TMA slides containing FFPE tissues were first heated in an oven at 60° C. for 30 min to remove any solvents. The slides were then dewaxed and re-hydrated through sequential immersion in Histoclear (2×), 100% ethanol (2×), 95% ethanol, 70% ethanol, and finally in DI water.
Heat-induced epitope retrieval was done in a solution containing 10 mM Tris Base, 1 mM EDTA, 0.05% Tween 20 at pH 9.0, and heated at 95° C. for 20 min. The container with the antigen retrieval solution and slides was then removed and allowed to cool to room temperature for an additional 20 min. The slides were then washed in DI water. Endogenous peroxidase activity was then blocked by incubation of the slides with 3% H2O2 in PBS for 30 min at room temperature. The slides were washed in DI water, followed by a blocking step with 10% normal goat serum in PBS for 30 min.
The slides were then incubated with GR6A04 at 5 μg/mL in blocking solution overnight at 4° C. The slides were then washed an incubated with a polymer-based anti-mouse secondary antibody conjugated with HRP (DAKO, USA) for 30 min at room temperature, and developed with the recommended DAB chromogen substrate solution for 2 min, and counterstained with Gill's Hematoxylin solution.
The stained slides were subsequently dehydrated through immersion in 50% ethanol, 70% ethanol, 90% ethanol, 100% ethanol (2×) and Histoclear (2×), before mounting with a glass cover slip. The slides were then imaged with the Zeiss AxioScan Digital Slide Scanner.

B1: GR6A04: mouse IgG1, κ anti-CEACAM6 monoclonal antibody, VH SEQ ID NO:1, VL SEQ ID NO:2, binds N-glycosylated CEACAM6 (antibody, V domains shown)
VH: SGPELVKPGASVKMSCKASGNTFTSYVMHWVKQKPGQGLEWIGYINPYNDGTKYNEKFKGKATLTSDKSSSTAYMELSSLTSEDSAVYYCARSTARATPYFYAMDYWGQGTSVTVSS
VL: DILMTQSPSSLAVTAGEKVTMRCKSSQSLLWSVNQNSYLSWYQLKQGQPPKLLLYGASIRESWVPDRFTGSGSGTDFTLTISNVHVEDLAVYYCQHNHGSFLPYTFGGGTKLEIK
modifications: Isolated antibody fragment
- colon cores weakly positive (2+) (MNO961): 2 of 3
- normal tissue cores stained positive (MNO961): 3
- prostate cores weakly positive (2+) (MNO961): 1 of 3
- normal tissue cores with no staining (MNO961, 35 anatomical sites): 93 of the 96
